In the nanobody polyreactivity screen of Harvey et al. (2022):

Assay: yeast display, Sf9 membrane polyspecificity reagent, FACS + sequencing; frameworks hold sequencing errors
In short: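 After 36–48 hours of galactose induction, yeast (Saccharomyces cerevisiae BJ5465) displaying a synthetic nanobody library were stained at 4 °C for 1 hour with 10% biotinylated, detergent-solubilized Sf9 membrane reagent. Streptavidin microbeads enriched the stained cells before FACS sorting into low and high (top ~1%) gates on anti-HA and streptavidin fluorescence. Each clone's polyreactivity label reflects its gate of origin.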
With “QVQLVESGGRLRQAGGSLRLSCAASGSTFVSYAMGWYRQAPGKERELVAAISTSGGRSYYADSVKGRFTISRDNAKNTVYLQMNSLKREDTAVYYCAAEHYQRWWPYWYWPYYWGQGTQVTVSS” the “polyreactivity (PSR sort gate)” value was “high polyreactivity”.
For “QVQLVESGGRLVHAGGSLRLSCAASGFTFSDYAMGGYRQEPGKERELVAAISTRGSSTYYADSVKGLFTISRDNEKTTVYLEMNSLKPEDTAVYYCNAVGSYSGYYYWGQGNQVTVSS”, the “polyreactivity (PSR sort gate)” value was “high polyreactivity”.
In the case of “QVQLVESGGRLVKARGSLRISFADSVRTFIRNAMGWYRQAPGKERELVAAITSSGGSTYYADSVKGRFTISRDNAKITVYLQMNILKPEDTAVYYCAAVNSKRHRRYNYWGQGTQVTVSS”, the “polyreactivity (PSR sort gate)” value is reported as “high polyreactivity”.
In the case of “QVQLVESGGRLVQAGGRLRLICAASGFIFSDYAMGWYRQAPGKERELVAAISWRGGSTYYADSVKGRFTISRDKEKNSVYLQMNSLKPEDTAVYYCAADYGAYDMDYWGQGTQVTVSS”, the “polyreactivity (PSR sort gate)” value is reported as “high polyreactivity”.
In the case of “QVQLVESGGRLVQAGGRLRLSCAASGSIFMKNAMGWYRPAHGKERELVADITRSGDRTYYADSVKGRFTISRDNAKNTVYLQMNSLKPEDTAVYYCAKYYVWPRYGYSGQGTQVTVSS”, the “polyreactivity (PSR sort gate)” value is reported as “high polyreactivity”.
For “QVQLVESGGRLVQAGGSHRLSCAASGRTFFHYAMGWYRQSPGKERELVAAITYRGTSTYYADSVKGRFTISRDNAKYTVYIQMNSLKPEDTAVYYCNAYSTRGGWSYRGDSWGQGTQVTVSS”, the “polyreactivity (PSR sort gate)” value was “high polyreactivity”.
In the case of “QVQLVESGGRLVQAGGSLRISCDASGFIFVRNAMGWSRQAPGTEWELVAASTLCTGSTYYADSVKGRFTISRDNAKITVYLQMKSLKPEDTAVYYCNANKRIRPYRPGMDYWGHGTQVTVSS”, the “polyreactivity (PSR sort gate)” value is reported as “high polyreactivity”.
For “QVQLVESGGRLVQAGGSLRISSAASRFILFPYAMGWYRQAPGKERELVAAIRSDDTTNYADSVKGRFTISRDNAKNTVYLQMNSLKPEDTAVYYCATACYSWVSYDYWGQGTQVTVSS”, the “polyreactivity (PSR sort gate)” value was “low polyreactivity”.
With “QVQLVESGGRLVQAGGSLRLICAASGSIFGHYAMGWYRQAPRKEREFVAAIDWSGGSSYYADSVKGRFTISRDNAKNTVYLQMISLKPEDTAVYYCAARVRERYYWGQGTQVTVSS” the “polyreactivity (PSR sort gate)” value was “high polyreactivity”.
In the case of “QVQLVESGGRLVQAGGSLRLRCAASGRTFVTNAMGWYRQAPGQERELVAAISGSGGSTYYADSVKGRFTISRDNAKNTFYLQMNSLKPEDTAVYDCATSYSLGYVRYGYWGQGSQVTVSS”, the “polyreactivity (PSR sort gate)” value is reported as “high polyreactivity”.
In the case of “QVQLVESGGRLVQAGGSLRLRCAASGYIFVYNAKGWYRQAPGKARELVAAITDGGGSTYADSVKGRFTISRDNAKNTVYLQMNSLKPEDTAVYYCAARYSDTTWYVLYYYWVQGTQVTVSS”, the “polyreactivity (PSR sort gate)” value is reported as “low polyreactivity”.
In the case of “QVQLVESGGRLVQAGGSLRLSCAASGFIFWSYAMGWYRQARGKERELVAAISWSGGRTYYADSVKGRFTISRDNAKNTVYLQMNSLKPEDTAVYYCAAVKRYSSQYPALDYWGQGTQVTVSS”, the “polyreactivity (PSR sort gate)” value is reported as “high polyreactivity”.
For “QVQLVESGGRLVQAGGSLRLSCAASGFTFYGYAMGWYRQAPGKERELVAAISRGGGRTYYADSVKGRFTISRDNAKNTVYLQMNSLKPEDTAVYYCAAQGGSKTSSRSYGYWGQGTQVTVSS”, the “polyreactivity (PSR sort gate)” value was “high polyreactivity”.
For “QVQLVESGGRLVQAGGSLRLSCAASGFTIPHYAMGWYRQAPGKERELVAVISFSGGRTYYADSVKGRFTISRDNAKNTVYLQMNSLKPEDTAVYYCPAGFWDDYGKYYYWGQGTQVTVSS”, the “polyreactivity (PSR sort gate)” value was “high polyreactivity”.
For “QVQLVESGGRLVQAGGSLRLSCAASGFTYQGNAMGWYRQAPGKERVLVAAISRGGSTYYADSVKGRFTISRDNAKNTVYLQMNRLKPEDTAVYYGAAKPSVDLDYWGQGTQVTVSS”, the “polyreactivity (PSR sort gate)” value was “high polyreactivity”.
With “QVQLVESGGRLVQAGGSLRLSCAASGIFYTYDMGRYRQAPGKERELVATINSGGSTNYADSVKGRFTISRDNAKNTVYLQMNSLKPEDTAVYYCAAAEDVYSERPRYDYWGQGTQVTVSS” the “polyreactivity (PSR sort gate)” value was “low polyreactivity”.
In the case of “QVQLVESGGRLVQAGGSLRLSCAASGITFYLYAMGWYRQAPGKERELVAAISSSGGSTYYADSVKGRFTISRDNEKNTVYLQMNSLKPEDTAVYYCAAVFYTSVTIYDYWGQGTQVTVSS”, the “polyreactivity (PSR sort gate)” value is reported as “high polyreactivity”.
